# Assay results taken from article PMC10967246 (2023).
# B1: recombinant 6×His-tagged TTP1, RED-NHS labelled (natural protein)
# chain: MLMTLAATTSVSFNSKLLLFRIRCSDSNPKRGFGSKKEEKDPALQQRKSSSKQSVSVPRKAPGLNTQFEGKSGRSFDIDFDERLENIRRSALEQKKTEVVKEFGPIDYDAPVKSDQKTIGLGTKVGVGIAVVVFGLVFALGDFLPTGSDSPTKNTTVVKNQISEEEKATLQQRLKEFETTLNGTPQDQAALEGAAVTLTELGDYSRAAAFLEKLAKERPTDPDVFRLLGEVNYELNNYEGSIAAYKISEKVSKGIDLEVTRGLMNAYLAAKKPDEAVKFLLDTRERLNTKKTSTTDSVTDETNLDPIQVELLLGKAYSDWGHISDAIAVYDQLISAHPEDFRGYLAKGIILRENGSRGDAERMFIQARFFAPNKAKALVDRYSKL
# modifications: labelled with the RED-NHS Protein Labeling Kit, degree of labeling approximately 1.0
# Assays:
# Experiment in all cases: MST
# [1] = molecular target: T1, recombinant His-tagged PORB (Arabidopsis, UniProt P21218 67-401)
# T1 chain: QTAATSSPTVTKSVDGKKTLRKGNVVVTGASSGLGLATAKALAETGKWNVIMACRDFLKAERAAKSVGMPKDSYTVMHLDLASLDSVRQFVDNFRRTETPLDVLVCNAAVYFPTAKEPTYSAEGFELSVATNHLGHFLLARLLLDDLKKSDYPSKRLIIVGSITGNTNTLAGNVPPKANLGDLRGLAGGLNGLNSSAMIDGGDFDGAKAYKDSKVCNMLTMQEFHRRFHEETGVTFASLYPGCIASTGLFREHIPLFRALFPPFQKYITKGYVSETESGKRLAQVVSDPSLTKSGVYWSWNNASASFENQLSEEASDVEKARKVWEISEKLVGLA
# [2] = molecular target: T2, recombinant His-tagged full-length GluTR1 (Arabidopsis, UniProt P42804 62-543)
# T2 chain: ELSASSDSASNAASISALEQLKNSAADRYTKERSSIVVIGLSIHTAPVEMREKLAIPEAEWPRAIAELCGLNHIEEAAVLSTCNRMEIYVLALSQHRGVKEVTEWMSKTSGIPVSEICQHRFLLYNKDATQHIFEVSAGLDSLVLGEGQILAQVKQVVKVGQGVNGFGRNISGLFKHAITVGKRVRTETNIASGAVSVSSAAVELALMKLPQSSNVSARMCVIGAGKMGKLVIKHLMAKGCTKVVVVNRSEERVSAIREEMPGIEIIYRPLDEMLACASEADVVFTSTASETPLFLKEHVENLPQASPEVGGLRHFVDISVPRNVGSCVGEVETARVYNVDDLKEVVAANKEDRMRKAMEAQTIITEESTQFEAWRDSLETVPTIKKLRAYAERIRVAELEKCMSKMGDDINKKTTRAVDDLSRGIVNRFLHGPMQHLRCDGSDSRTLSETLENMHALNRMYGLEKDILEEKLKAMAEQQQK
# [3] = molecular target: GST-tag (Schistosoma japonicum)
# [4] = molecular target: T3, ΔREDGluTR-6xHis (Arabidopsis thaliana)
# T3 chain: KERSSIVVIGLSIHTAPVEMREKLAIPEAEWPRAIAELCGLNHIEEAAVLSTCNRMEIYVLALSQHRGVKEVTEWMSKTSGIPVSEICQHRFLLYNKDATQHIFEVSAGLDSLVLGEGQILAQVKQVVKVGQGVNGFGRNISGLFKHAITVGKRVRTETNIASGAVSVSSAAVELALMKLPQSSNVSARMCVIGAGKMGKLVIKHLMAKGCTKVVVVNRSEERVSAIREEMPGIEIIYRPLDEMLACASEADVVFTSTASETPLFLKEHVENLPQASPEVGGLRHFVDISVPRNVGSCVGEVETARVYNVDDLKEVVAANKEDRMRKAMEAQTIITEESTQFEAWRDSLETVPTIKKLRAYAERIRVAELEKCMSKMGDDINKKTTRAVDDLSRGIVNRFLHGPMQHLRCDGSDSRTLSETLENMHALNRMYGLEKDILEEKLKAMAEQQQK
# [5] = molecular target: T4, TPR domain of FLU, TPR_((FLU)), GST-tagged (Arabidopsis)
# T4 chain: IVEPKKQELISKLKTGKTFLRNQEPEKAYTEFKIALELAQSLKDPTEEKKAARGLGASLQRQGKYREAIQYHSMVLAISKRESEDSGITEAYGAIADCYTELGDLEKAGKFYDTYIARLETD
# [6] = molecular target: T5, recombinant His-tagged GluTR-binding protein (GBP) (Arabidopsis, UniProt Q9LU39 43-317)
# T5 chain: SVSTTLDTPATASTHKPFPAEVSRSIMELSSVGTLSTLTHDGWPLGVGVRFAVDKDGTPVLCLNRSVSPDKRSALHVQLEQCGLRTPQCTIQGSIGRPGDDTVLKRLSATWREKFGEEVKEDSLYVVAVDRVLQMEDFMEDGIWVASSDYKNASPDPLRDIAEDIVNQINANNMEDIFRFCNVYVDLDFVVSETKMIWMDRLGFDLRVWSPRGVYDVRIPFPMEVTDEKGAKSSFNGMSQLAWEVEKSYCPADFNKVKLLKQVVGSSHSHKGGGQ
# [7] = molecular target: T6, linker domain followed by the TPR domain of FLU, link TPR_((FLU)) (Arabidopsis)
# T6 chain: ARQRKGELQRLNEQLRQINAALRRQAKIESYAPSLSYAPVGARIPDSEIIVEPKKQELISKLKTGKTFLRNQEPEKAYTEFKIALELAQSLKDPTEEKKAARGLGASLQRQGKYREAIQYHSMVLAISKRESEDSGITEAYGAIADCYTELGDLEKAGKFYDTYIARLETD
# [8] = molecular target: T7, recombinant His-tagged PORA (Arabidopsis, UniProt Q42536 70-405)
# T7 chain: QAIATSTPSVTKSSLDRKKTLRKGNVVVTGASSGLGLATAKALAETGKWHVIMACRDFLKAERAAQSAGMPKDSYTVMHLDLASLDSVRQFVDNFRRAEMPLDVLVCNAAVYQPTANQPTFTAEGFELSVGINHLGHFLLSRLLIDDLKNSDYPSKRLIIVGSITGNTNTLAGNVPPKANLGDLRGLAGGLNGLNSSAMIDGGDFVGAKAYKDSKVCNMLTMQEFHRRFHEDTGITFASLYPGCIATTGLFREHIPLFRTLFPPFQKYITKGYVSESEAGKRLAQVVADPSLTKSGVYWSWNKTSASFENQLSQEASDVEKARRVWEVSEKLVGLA
# [9] = molecular target: T8, recombinant His-tagged PORC (Arabidopsis, UniProt O48741 68-401)
# T8 chain: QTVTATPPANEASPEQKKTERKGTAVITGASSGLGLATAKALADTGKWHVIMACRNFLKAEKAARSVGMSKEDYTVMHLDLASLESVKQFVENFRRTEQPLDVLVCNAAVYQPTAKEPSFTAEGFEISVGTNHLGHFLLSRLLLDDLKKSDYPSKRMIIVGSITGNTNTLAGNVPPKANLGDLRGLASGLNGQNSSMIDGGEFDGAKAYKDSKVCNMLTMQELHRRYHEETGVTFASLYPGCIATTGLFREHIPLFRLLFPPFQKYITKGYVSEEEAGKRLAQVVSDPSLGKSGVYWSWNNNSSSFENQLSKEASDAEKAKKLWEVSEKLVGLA
binder,measurement,setting,value
B1,Kd,[1],476 nM
same,Kd,[2],295 nM
same,Kd,[3],> 400000 nM
same,Kd,[4],3050 nM
same,Kd,[5],7900 nM
same,Kd,[6],266 nM
same,Kd,[7],1610 nM
same,Kd,[8],1310 nM
same,Kd,[9],112 nM
